According to IntAct's records for PubMed 18278053:

B1: Integrin beta-1 (Gallus gallus (Chicken)), P07228 (parent)
chain: MAETNLTLLTWAGILCCLIWSGSAQQGGSDCIKANAKSCGECIQAGPNCGWCKKTDFLQEGEPTSARCDDLAALKSKGCPEQDIENPRGSKRVLEDREVTNRKIGAAEKLKPEAITQIQPQKLVLQLRVGEPQTFSLKFKRAEDYPIDLYYLMDLSYSMKDDLENVKSLGTALMREMEKITSDFRIGFGSFVEKTVMPYISTTPAKLRNPCTGDQNCTSPFSYKNVLSLTSEGNKFNELVGKQHISGNLDSPEGGFDAIMQVAVCGDQIGWRNVTRLLVFSTDAGFHFAGDGKLGGIVLPNDGKCHLENNMYTMSHYYDYPSIAHLVQKLSENNIQTIFAVTEEFQAVYKELKNLIPKSAVGTLSSNSSNVIQLIIDAYNSLSSEVILENSKLPKEVTISYKSYCKNGVNDTQEDGRKCSNISIGDEVRFEINVTANECPKKGQNETIKIKPLGFTEEVEIHLQFICDCLCQSEGEPNSPACHDGNGTFECGACRCNEGRIGRLCECSTDEVNSEDMDAYCRRENSTEICSNNGECICGQCVCKKRENTNEVYSGKYCECDNFNCDRSNGLICGGNGICKCRVCECFPNFTGSACDCSLDTTPCMAGNGQICNGRGTCECGTCNCTDPKFQGPTCEMCQTCLGVCAEHKDCVQCRAFEKGEKKETCSQECMHFNMTRVESRGKLPQPVHPDPLSHCKEKDVGDCWFYFTYSVNSNGEASVHVVETPECPSGPDIIPIVAGVVAGIVLIGLALLLIWKLLMIIHDRREFAKFEKEKMNAKWDTGENPIYKSAVTTVVNPKYEGK

Variants of: B1
Settings: with urp2_mouse Fermt3, Q8K1B8
Sequence of urp2_mouse Fermt3, Q8K1B8 (Q8K1B8 whole entry): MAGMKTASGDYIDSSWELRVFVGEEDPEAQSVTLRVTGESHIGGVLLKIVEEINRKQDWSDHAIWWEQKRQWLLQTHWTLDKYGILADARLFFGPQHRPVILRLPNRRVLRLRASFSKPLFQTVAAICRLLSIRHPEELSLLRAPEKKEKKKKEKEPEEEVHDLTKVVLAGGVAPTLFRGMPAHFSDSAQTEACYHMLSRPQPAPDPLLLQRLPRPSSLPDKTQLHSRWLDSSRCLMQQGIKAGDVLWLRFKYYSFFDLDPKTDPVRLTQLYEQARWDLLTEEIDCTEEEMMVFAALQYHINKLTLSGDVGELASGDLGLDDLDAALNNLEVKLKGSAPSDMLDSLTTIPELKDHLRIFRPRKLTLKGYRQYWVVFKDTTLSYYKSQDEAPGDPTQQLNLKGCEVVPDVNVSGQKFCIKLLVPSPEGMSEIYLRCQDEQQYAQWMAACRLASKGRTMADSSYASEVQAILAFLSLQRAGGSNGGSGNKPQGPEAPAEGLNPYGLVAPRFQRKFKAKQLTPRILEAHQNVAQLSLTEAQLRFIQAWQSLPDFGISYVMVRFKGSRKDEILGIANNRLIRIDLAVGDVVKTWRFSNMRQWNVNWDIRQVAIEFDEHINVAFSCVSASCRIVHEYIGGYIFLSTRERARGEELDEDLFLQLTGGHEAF

| Variant | effect of a mutation on the interaction |
| --- | --- |
| Y800A | disrupting interaction strength |
| W780A | decreasing interaction strength |
| T793A;T794A | disrupting interaction strength |
| Y788A | decreasing interaction strength |
